{
  "source": "patent US20220010020A1",
  "about": "(Five Prime, published 2022)",
  "binders": {"B1": {"name": "anti-FGFR2-IIIb antibody (afucosylated, humanized IgG1 monoclonal antibody), control sample incubated without hydrogen peroxide (antibody, V domains shown)", "VH": "QVQLVQSGAEVKKPGSSVKVSCKASGYIFTTYNVHWVRQAPGQGLEWIGSIYPDNGDTSYNQNFKGRATITADKSTSTAYMELSSLRSEDTAVYYCARGDFAYWGQGTLVTVSS", "VL": "DIQMTQSPSSLSASVGDRVTITCKASQGVSNDVAWYQQKPGKAPKLLIYSASYRYTGVPSRFSGSGSGTDFTFTISSLQPEDIATYYCQQHSTTPYTFGQGTKLEIKR", "notes": "also called αFGFR2b; Sample 1"}, "B2": {"name": "anti-FGFR2-IIIb antibody incubated with 0.01% hydrogen peroxide overnight at room temperature (force oxidized) (antibody, human IgG1, kappa, V domains shown)", "VH": "B1 VH", "VL": "B1 VL", "notes": "Same antibody as m1 after peroxide treatment; also called +0.01% H2O2; 0.01% H2O2"}, "B3": {"name": "anti-FGFR2-IIIb antibody incubated with 0.1% hydrogen peroxide overnight at room temperature (force oxidized) (antibody, human IgG1, kappa, V domains shown)", "VH": "B1 VH", "VL": "B1 VL", "notes": "Same antibody as m1 after peroxide treatment; also called +0.1% H2O2; 0.1% H2O2"}, "B4": {"name": "anti-FGFR2-IIIb antibody incubated with 1.0% hydrogen peroxide overnight at room temperature (force oxidized) (antibody, human IgG1, kappa, V domains shown)", "VH": "B1 VH", "VL": "B1 VL", "notes": "Same antibody as m1 after peroxide treatment; also called +1.0% H2O2; 1.0% H2O2"}},
  "data": [
    {"target": "T1, FGFR2-IIIb (fibroblast growth factor receptor 2 IIIb splice form) (human, UniProt P21802 22-377)", "T1 construct": "also called FGFR2b; KGFR", "T1 chain": "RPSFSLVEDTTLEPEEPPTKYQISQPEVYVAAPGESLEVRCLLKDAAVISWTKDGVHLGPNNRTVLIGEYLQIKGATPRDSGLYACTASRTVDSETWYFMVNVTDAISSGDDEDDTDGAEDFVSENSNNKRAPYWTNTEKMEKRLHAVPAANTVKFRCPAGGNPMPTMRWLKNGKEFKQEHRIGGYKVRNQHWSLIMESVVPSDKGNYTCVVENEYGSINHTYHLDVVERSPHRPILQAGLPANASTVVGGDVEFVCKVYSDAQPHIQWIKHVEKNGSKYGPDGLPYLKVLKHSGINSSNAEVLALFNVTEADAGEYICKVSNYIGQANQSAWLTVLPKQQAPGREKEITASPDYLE", "assay": "blocking ELISA (potency), forced oxidation study", "units": {"% Potency (Assay 1), against Reference": "%", "% Potency (Assay 2), against Reference": "%"}, "values": [
      {"binder": "B1", "% Potency (Assay 1), against Reference": 79, "% Potency (Assay 2), against Reference": 89},
      {"binder": "B2", "% Potency (Assay 1), against Reference": 98, "% Potency (Assay 2), against Reference": 106},
      {"binder": "B3", "% Potency (Assay 1), against Reference": 78, "% Potency (Assay 2), against Reference": 100},
      {"binder": "B4", "% Potency (Assay 1), against Reference": 73, "% Potency (Assay 2), against Reference": 93}
    ]},
    {"target": "T1, FGFR2-IIIb (fibroblast growth factor …)", "assay": "blocking ELISA (potency), forced oxidation study; blocked ligand not named", "units": {"IC50": "µg/mL"}, "values": [
      {"binder": "B1", "IC50": 0.0272},
      {"binder": "B2", "IC50": 0.0208},
      {"binder": "B3", "IC50": 0.0259},
      {"binder": "B4", "IC50": 0.0257}
    ]},
    {"target": "T1, FGFR2-IIIb (fibroblast growth factor …)", "assay": "ELISA potency of forced oxidation samples", "values": [
      {"binder": "B1", "Potency By ELISA": 84},
      {"binder": "B2", "Potency By ELISA": 102},
      {"binder": "B3", "Potency By ELISA": 89},
      {"binder": "B4", "Potency By ELISA": 83}
    ]}
  ]
}
